4 molecules from publication PMC2920134 (The Journal of neuroscience : the official journal of the …, 2010) can be followed below.

Assay in all cases: pull-down
Assay [1] deals with T1, His6-tagged NSF (AA 1-744) (mouse, UniProt P46460 1-744).
Assay [2] addresses His6-tagged NSF truncated segment (AA 197-744) (mouse, UniProt P46460 197-744).
Assay [3] deals with T1, His6-tagged NSF (AA 1-744). This is another data set of the same source.
Assay [4] concerns the target His6-tagged Arr1 (mouse, UniProt P20443 1-403).

Read-outs that look alike come from different tables or passages of the source.

Sequence of His6-tagged NSF truncated segment (AA 197-744) (P46460 197-744): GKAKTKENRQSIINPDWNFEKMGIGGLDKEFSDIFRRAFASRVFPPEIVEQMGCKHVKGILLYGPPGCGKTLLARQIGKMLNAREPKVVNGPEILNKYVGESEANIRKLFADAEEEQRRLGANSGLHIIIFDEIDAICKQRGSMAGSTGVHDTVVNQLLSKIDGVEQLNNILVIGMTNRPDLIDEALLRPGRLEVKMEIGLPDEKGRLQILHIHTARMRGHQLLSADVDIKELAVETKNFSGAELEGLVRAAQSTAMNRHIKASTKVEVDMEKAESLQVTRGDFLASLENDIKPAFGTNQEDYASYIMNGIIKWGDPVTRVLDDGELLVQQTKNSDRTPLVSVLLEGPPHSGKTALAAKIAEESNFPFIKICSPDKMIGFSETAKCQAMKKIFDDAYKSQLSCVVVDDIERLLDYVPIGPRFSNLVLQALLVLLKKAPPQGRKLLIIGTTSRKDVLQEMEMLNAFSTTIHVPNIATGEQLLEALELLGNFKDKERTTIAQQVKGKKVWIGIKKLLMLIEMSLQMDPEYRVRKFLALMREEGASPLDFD

B1: GST-tagged Arr1 [AA 1-403] (natural protein, mouse, UniProt P20443 1-403, looked up)
chain: MAACGKTNKSHVIFKKVSRDKSVTIYLGKRDYVDHVSQVEPVDGVVLVDPELVKGKKVYVTLTCAFRYGQEDIDVMGLTFRRDLYFSRVQVYPPVGAMSVLTQLQESLLKKLGDNTYPFLLTFPDYLPCSVMLQPAPQDVGKSCGVDFEVKAFASDITDPEEDKIPKKSSVRLLIRKVQHAPPEMGPQPSAEASWQFFMSDKPLNLSVSLSKEIYFHGEPIPVTVTVTNNTDKVVKKIKVSVEQIANVVLYSSDYYVKPVASEETQEKVQPNSTLTKTLVLVPLLANNRERRGIALDGKIKHEDTNLASSTIIKEGIDRTVMGILVSYHIKVKLTVSGFLGELTSSEVATEVPFRLMHPQPEDPAKESVQDENLVFEEFARQNLKDTGENTEGKKDEDAGQDE
As to B1, the binding result in assay [1] and in assay [2] was “binds” each time.

B2: GST-tagged truncated Arr1 [AA 1-191] (domain or fragment, mouse, UniProt P20443 1-191, looked up)
chain: MAACGKTNKSHVIFKKVSRDKSVTIYLGKRDYVDHVSQVEPVDGVVLVDPELVKGKKVYVTLTCAFRYGQEDIDVMGLTFRRDLYFSRVQVYPPVGAMSVLTQLQESLLKKLGDNTYPFLLTFPDYLPCSVMLQPAPQDVGKSCGVDFEVKAFASDITDPEEDKIPKKSSVRLLIRKVQHAPPEMGPQPSA
For the molecule B2, the binding result in assay [3] is “binds”.

B3: GST-tagged NSF (AA 1-250) (domain or fragment, mouse, UniProt P46460 1-250, looked up)
chain: MAGRTMQAARCPTDELSLSNCAVVNEKDFQSGQHVMVRTSPNHKYIFTLRTHPSVVPGCIAFSLPQRKWAGLSIGQDIEVALYSFDKAKQCIGTMTIEIDFLQKKNIDSNPYDTDKMAAEFIQQFNNQAFSVGQQLVFSFNDKLFGLLVKDIEAMDPSILKGEPASGKRQKIEVGLVVGNSQVAFEKAENSSLNLIGKAKTKENRQSIINPDWNFEKMGIGGLDKEFSDIFRRAFASRVFPPEIVEQMGC
With B3, the binding result in assay [4] is “binds”.

B4: GST-tagged truncated Arr1 [AA 1-370] (domain or fragment, mouse, UniProt P20443 1-370, looked up)
chain: MAACGKTNKSHVIFKKVSRDKSVTIYLGKRDYVDHVSQVEPVDGVVLVDPELVKGKKVYVTLTCAFRYGQEDIDVMGLTFRRDLYFSRVQVYPPVGAMSVLTQLQESLLKKLGDNTYPFLLTFPDYLPCSVMLQPAPQDVGKSCGVDFEVKAFASDITDPEEDKIPKKSSVRLLIRKVQHAPPEMGPQPSAEASWQFFMSDKPLNLSVSLSKEIYFHGEPIPVTVTVTNNTDKVVKKIKVSVEQIANVVLYSSDYYVKPVASEETQEKVQPNSTLTKTLVLVPLLANNRERRGIALDGKIKHEDTNLASSTIIKEGIDRTVMGILVSYHIKVKLTVSGFLGELTSSEVATEVPFRLMHPQPEDPAKESVQ
For B4, the binding result in assay [3] is given as “binds”.
